B1: Histag-Ct_HPt (residues 9-175), labelled with Red-Tris NTA dye (natural protein)
chain: ADRAQDHNNNNTPRNSNYVVEEEEVSEEEEEAIMMPDFGDHVDTSIFGQILEMDEGDDHDFSAPLVLNFFEQAEETFQKMETALNNKDLPELSKLGHFLKGSSATLGFTKIRDSCQLIQQYGHGLNVDGSSEPDEGVCLKKIAEALASARVDTVALHKMMREFFEY
modifications: Red-Tris NTA Dye bound to the Histag
B2: REC_(hHK3) N1107A/N1110A, double mutant of the REC-1 domain of hHK3 from Chaetomium thermophilum (domain or fragment)
chain: ENRATPSLADNTRSFEILLAEDAAVAQRLAVKILEKYHHVVTVVGNGEEAVEAVKRKKFDVILMDVQMPVMGGFEATAKIREYEASLPTPQRTPIIALTAHAMMGDREKCLEAQMDEYLSKPLQQANLIQTILKCA

Tests used:
Test in all cases: MST; Histag-Ct_HPt labelled with Red-Tris NTA dye held constant; REC-1 domain in sixteen two-fold dilutions from 1 mM (0.32 mM for REC_hHK6); PBS + 0.05% Tween-20; medium MST power; hyperbolic fit, 1:1 model; mean of two titrations
Conditions in all cases: both partners purified
[1] = target: T1, REC_(hHK3), REC-1 domain of hybrid histidine kinase hHK3 (group III, ortholog of Nik1) from Chaetomium … (Chaetomium thermophilum)
T1 construct: REC-1 (receiver) domain of hHK3, CTHT_0053860, group III hybrid histidine kinase of C. thermophilum; not shown: His6, N-terminal, cleaved

[2] = target: T2, REC_(hHK6), REC-1 domain of hybrid histidine kinase hHK6 (group VI, ortholog of Sln1) from Chaetomium … (Chaetomium thermophilum)
T2 construct: REC-1 (receiver) domain of hHK6, CTHT_0050920, group VI hybrid histidine kinase of C. thermophilum (protein ends at residue 1290); also called REC_(hHK6)-BeF; not shown: His6, N-terminal, cleaved

[3] = target: B1

| Binder | Kd [1] [µM] | Kd [2] [µM] | Kd [3] [µM] |
| --- | --- | --- | --- |
| B1 | 28 ± 0.1 | 13 ± 0.04 | – |
| B2 | – | – | 46 ± 0.07 |

From PMC11224324, “Structural and functional insights underlying recognition of histidine phosphotransfer protein in fungal phosphorelay systems” (Communications Biology, 2024)
